{"source": "paper PMC4115806", "about": "(2014)", "molecular_target": "T1, Activated protein C (Homo sapiens, UniProt P04070)", "T1 chain 1": "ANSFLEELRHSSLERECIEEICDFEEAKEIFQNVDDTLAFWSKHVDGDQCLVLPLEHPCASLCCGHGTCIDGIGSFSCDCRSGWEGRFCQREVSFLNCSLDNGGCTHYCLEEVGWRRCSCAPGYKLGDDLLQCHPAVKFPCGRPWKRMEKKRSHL", "T1 chain 2": "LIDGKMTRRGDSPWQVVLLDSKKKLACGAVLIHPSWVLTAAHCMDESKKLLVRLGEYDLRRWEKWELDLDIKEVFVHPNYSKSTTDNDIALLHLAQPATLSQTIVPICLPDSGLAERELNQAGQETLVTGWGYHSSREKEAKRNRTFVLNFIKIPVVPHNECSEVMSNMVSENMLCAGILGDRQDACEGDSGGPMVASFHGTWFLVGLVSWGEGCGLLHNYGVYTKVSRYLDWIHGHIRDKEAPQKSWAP", "experiment": "flow cytometry", "data": [{"binder": "Endothelial protein C receptor (protein, fluorescently labelled APC) SQDASDGLQRLHMLQISYFRDPYHVWYQGNASLGGHLTHVLEGPDTNTTIIQLQPLQEPESWARTQSGLQSYLLQFHGLVRLVHQERTLAFPLTIRCFLGCELPPEGSRAHVFFEVAVNGSSFVSFRPERALWQADTQVTSGVVTFTLQQLNAYNRTRYELREFLEDTCVQYVQKHISAENTKGSQTSRSYTS", "values": [{"measurement": "Kd", "result": 77, "unit": "nM"}]}]}
